# Measured values: the supplement of paper PMC10724198
# ± gives the standard deviation of the averaged measurements.
# Tests used:
# Saccharomyces cerevisiae [1] = assay: protein stability index of tFT-peptide fusion in deletion strain of DAS1 (PSI (0-1 scale)); higher = more stable (slower turnover)
# Experimental: (§1)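 MPS profiling in S. cerevisiae of two library types built from selected 12-aa C-degron peptides (IN1, IN2, LN1, LN3, VN2, R1-R5, W1-W3, Atg1 and Rpa12 C-termini): saturation mutagenesis libraries and C-terminal +1 capping libraries (13 aa). Each peptide is fused to the C-terminus of a sfGFP-mCherry timer, after a GGGS linker. Cells are FACS-sorted into 8 mCherry/sfGFP bins and sequenced. PSI runs from 0 (unstable) to 1 (stable), measured once in wild type and in the das1Δ or doa10Δ background.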
# Saccharomyces cerevisiae [2] = assay: protein stability index of tFT-peptide fusion in wild type (PSI (0-1 scale)); higher = more stable (slower turnover); conditions: genetic background: wild type
# Experimental: as §1
# Saccharomyces cerevisiae [3] = assay: protein stability index of tFT-peptide fusion (C-terminal peptide) (PSI (0-1 scale)); higher = more stable (slower turnover); conditions: temperature: 30 C
# Experimental: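 MPS profiling in S. cerevisiae of the yeast C-terminome library: the last 12 aa of each annotated ORF are fused to the C-terminus of a sfGFP-mCherry timer, after a GGGS linker. Cells are FACS-sorted into 8 mCherry/sfGFP bins and deep-sequenced. PSI runs from 0 (unstable) to 1 (stable); wild type and das1Δ backgrounds, two technical replicates each.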
# [4] = genetic background: das1 deletion
# 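Wherever protein stability index of tFT-peptide fusion in deletion strain of DAS1 is given: PSI is a weighted mean of each variant's read distribution over the sorted stability bins, computed only for variants having over 10 reads in total.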
# 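Wherever protein stability index of tFT-peptide fusion in wild type is given: PSI derived as read-weighted mean over the 8 sorting bins, only variants exceeding 10 total reads kept, mCherry placed adjacent to the peptide and sfGFP distal.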
Sequence,protein stability index (Saccharomyces cerevisiae [1]),protein stability index (Saccharomyces cerevisiae [2]),protein stability index (Saccharomyces cerevisiae [3]; [4]),protein stability index (Saccharomyces cerevisiae [3]; genetic background: wild type)
VRGAVGGHRLVG,0.703,0.675,–,–
CTSRGYKFRTNN,0.685,0.215,–,–
LRILRQKMNHQN,0.666,0.148,–,–
SDDQILREFLYS [IRE1 C-terminal 12 aa],–,–,0.726 ± 0.004,0.7 ± 0.025
IYHKDGNKVLKE [YDR391C C-terminal 12 aa],–,–,0.706 ± 0.053,0.6606 ± 0.0043
ERRLSDLQQYHI [TMA10 C-terminal 12 aa],–,–,0.6982 ± 0.0017,0.683 ± 0.02
DLEEAANKAQPQ [YLR257W C-terminal 12 aa],–,–,0.6993 ± 0.0011,0.7125 ± 0.0015
RTSPIDNVSNTH [NUT2 C-terminal 12 aa],–,–,0.693 ± 0.0018,0.693 ± 0.046
AKDYLLDLAGQA [YBR085C-A C-terminal 12 aa],–,–,0.71316 ± 0.00065,0.659 ± 0.012
SMALRTVSILEN [YGL152C C-terminal 12 aa],–,–,0.683 ± 0.011,0.649 ± 0.025
NIFYQLLLTVNY [YBR013C C-terminal 12 aa],–,–,0.229 ± 0.0065,0.272 ± 0.02
ELTFDVKLVSMK [FPR4 C-terminal 12 aa],–,–,0.686 ± 0.0071,0.687 ± 0.034
QTVSTYTKVTPK [NCE103 C-terminal 12 aa],–,–,0.715 ± 0.016,0.702 ± 0.025
ADKELSFEINVK [BRR2 C-terminal 12 aa],–,–,0.6946 ± 0.003,0.741 ± 0.066
KELEFGLDRKYF [SLT2 C-terminal 12 aa],–,–,0.6989 ± 0.0057,0.68 ± 0.04
IGGLLKPSELDD [CRM1 C-terminal 12 aa],–,–,0.726 ± 0.032,0.696 ± 0.033
ELPAQKSTVISE [GEP7 C-terminal 12 aa],–,–,0.733 ± 0.039,0.702 ± 0.039
RMIEYLEEYQAW [FRE4 C-terminal 12 aa],–,–,0.706 ± 0.0073,0.72 ± 0.011
IDLSKKLSFYNY [GMH1 C-terminal 12 aa],–,–,0.685 ± 0.043,0.554 ± 0.0067
EKKYSNNTNAIQ [CTI6 C-terminal 12 aa],–,–,0.68042 ± 0.00045,0.657 ± 0.024
VLIVLLVLAFIA [TLG1 C-terminal 12 aa],–,–,0.284 ± 0.013,0.286 ± 0.0034
YCFYINCIMNRR [RRT15 C-terminal 12 aa],–,–,0.658 ± 0.031,0.551 ± 0.00072
TQKKVDQRWKKH [SEN54 C-terminal 12 aa],–,–,0.692 ± 0.016,0.737 ± 0.082
LDAENNNKCSIM [RHB1 C-terminal 12 aa],–,–,0.7192 ± 0.003,0.758 ± 0.027
IPMTLTTLSTVF [UPA2 C-terminal 12 aa],–,–,0.619 ± 0.0083,0.628 ± 0.012
SDLQKMLNKRKS [CWC24 C-terminal 12 aa],–,–,0.69 ± 0.025,0.682 ± 0.0099

Sequence,protein stability index (Saccharomyces cerevisiae [1]),protein stability index (Saccharomyces cerevisiae [2]),protein stability index (Saccharomyces cerevisiae [3]; [4]),protein stability index (Saccharomyces cerevisiae [3]; genetic background: wild type)
VDHLTDPDIYIP [BUB2 C-terminal 12 aa],–,–,0.7 ± 0.017,0.7129 ± 0.0042
GDEEDPNEEAAF [RPC31 C-terminal 12 aa],–,–,0.692 ± 0.01,0.673 ± 0.027
IDIPVQVKNSFI [YNR068C C-terminal 12 aa],–,–,0.711 ± 0.017,0.706 ± 0.051
LNLPWKRKKTTI [YCR101C C-terminal 12 aa],–,–,0.707 ± 0.017,0.686 ± 0.019
ILGAYLIDCVCC [YGL069C C-terminal 12 aa],–,–,0.576 ± 0.045,0.644 ± 0.1
KLEKLKAEKTRR [YDL085C-A C-terminal 12 aa],–,–,0.669 ± 0.01,0.673 ± 0.031
IFMCIILANKHF [YFR052C-A C-terminal 12 aa],–,–,0.342 ± 0.02,0.22 ± 0.009
SKNTREEKPTEL [MMM1 C-terminal 12 aa],–,–,0.698 ± 0.011,0.688 ± 0.018
FHLNAKTRESEI [YDL162C C-terminal 12 aa],–,–,0.702 ± 0.012,0.67952 ± 0.00014
ARTSDELQFTLP [MPT5 C-terminal 12 aa],–,–,0.7165 ± 0.0027,0.6868 ± 0.0057
LRSKSRLRGSHT [AHC1 C-terminal 12 aa],–,–,0.73 ± 0.014,0.654 ± 0.038
IVLPMIKDYLFS [HLJ1 C-terminal 12 aa],–,–,0.678 ± 0.018,0.702 ± 0.0079
DWESNQAKWIYE [YNK1 C-terminal 12 aa],–,–,0.752 ± 0.034,0.718 ± 0.029
NESLSTILLYII [YKR033C C-terminal 12 aa],–,–,0.644 ± 0.008,0.561 ± 0.0068
VIKQQNHQTTKI [HKR1 C-terminal 12 aa],–,–,0.68 ± 0.037,0.705 ± 0.055
IEELLAGIRMSI [BIT61 C-terminal 12 aa],–,–,0.719 ± 0.028,0.706 ± 0.037
AYLQYYSESPEN [DUG1 C-terminal 12 aa],–,–,0.707 ± 0.0053,0.724 ± 0.051
SNSSSSQKAAKE [HST2 C-terminal 12 aa],–,–,0.71 ± 0.033,0.651 ± 0.024
YEIEPDFDRLAV [SVP26 C-terminal 12 aa],–,–,0.691 ± 0.022,0.681 ± 0.021
ITGLKNNIQKCS [YER068C-A C-terminal 12 aa],–,–,0.688 ± 0.0055,0.253 ± 0.014
WHKSQLEDMNGY [YHL012W C-terminal 12 aa],–,–,0.683 ± 0.005,0.6568 ± 0.0052
FLNIENPENQSE [RCO1 C-terminal 12 aa],–,–,0.687 ± 0.01,0.674 ± 0.018
ARLLRFWDHIIR [SHU1 C-terminal 12 aa],–,–,0.728 ± 0.016,0.686 ± 0.06
TEPVKQVLGNKE [NMA1 C-terminal 12 aa],–,–,0.689 ± 0.012,0.675 ± 0.014
DDAKDSNNSSLR [WSC2 C-terminal 12 aa],–,–,0.682 ± 0.011,0.724 ± 0.0081
FAQNTNKDVELN [NGG1 C-terminal 12 aa],–,–,0.682 ± 0.028,0.666 ± 0.046

Sequence,protein stability index (Saccharomyces cerevisiae [1]),protein stability index (Saccharomyces cerevisiae [2]),protein stability index (Saccharomyces cerevisiae [3]; [4]),protein stability index (Saccharomyces cerevisiae [3]; genetic background: wild type)
AGTENDEEEFNI [PSF2 C-terminal 12 aa],–,–,0.674 ± 0.018,0.672 ± 0.044
TIIYPLFIFFSL [YMR105W-A C-terminal 12 aa],–,–,0.312 ± 0.022,0.225 ± 0.0044
SRIELELKNIGL [ECM29 C-terminal 12 aa],–,–,0.684 ± 0.0096,0.762 ± 0.0041
IHRSVSELSRLH [MBB1 C-terminal 12 aa],–,–,0.705 ± 0.023,0.689 ± 0.025
IKPSAEVHINAL [VMA10 C-terminal 12 aa],–,–,0.686 ± 0.011,0.743 ± 0.092
LMPSASLQDFYG [VID27 C-terminal 12 aa],–,–,0.73 ± 0.014,0.726 ± 0.014
DPKLYFDATILS [TDA3 C-terminal 12 aa],–,–,0.703 ± 0.025,0.691 ± 0.013
VKDKVDAVYSSS [FAA1 C-terminal 12 aa],–,–,0.6925 ± 0.0045,0.678 ± 0.011
VKKNKPSIESKC [GSH1 C-terminal 12 aa],–,–,0.688 ± 0.0086,0.762 ± 0.03
KQKEAWYSFLFK [SCO1 C-terminal 12 aa],–,–,0.7138 ± 0.0035,0.68151 ± 0.00058
GLLMAGKASEFQ [VMA16 C-terminal 12 aa],–,–,0.694 ± 0.013,0.72 ± 0.035
RKLLERSNKFHI [PET127 C-terminal 12 aa],–,–,0.689 ± 0.009,0.746 ± 0.088
DLEVKLKKHKKN [TRZ1 C-terminal 12 aa],–,–,0.733 ± 0.029,0.676 ± 0.05
IADELDWLKFGI [GLN3 C-terminal 12 aa],–,–,0.906 ± 0.028,0.882 ± 0.019
MTDFSSSIIKGK [YCR090C C-terminal 12 aa],–,–,0.713 ± 0.031,0.677 ± 0.048
EKQSSTASEKAA [THI7 C-terminal 12 aa],–,–,0.6813 ± 0.0064,0.704 ± 0.029
ERGMYRYYSLKA [LUG1 C-terminal 12 aa],–,–,0.623 ± 0.028,0.621 ± 0.015
TASEIQRTKSSI [YGR035C C-terminal 12 aa],–,–,0.711 ± 0.03,0.683 ± 0.022
IVHKSNFINNKK [OXA1 C-terminal 12 aa],–,–,0.7224 ± 0.0042,0.6943 ± 0.0055
GECVLTKNNKFT [ATG21 C-terminal 12 aa],–,–,0.672 ± 0.034,0.652 ± 0.026
QILLDKLNAVKK [HIT1 C-terminal 12 aa],–,–,0.66 ± 0.03,0.653 ± 0.019
FDELVRKYDTSN [SEC28 C-terminal 12 aa],–,–,0.718 ± 0.017,0.665 ± 0.0076
LDMAVIDNTTHN [SDO1 C-terminal 12 aa],–,–,0.712 ± 0.026,0.682 ± 0.016
SGSGVHVIKRVG [ESS1 C-terminal 12 aa],–,–,0.701 ± 0.0075,0.65 ± 0.019
TKAIEDAKKEMK [NUP2 C-terminal 12 aa],–,–,0.714 ± 0.013,0.737 ± 0.11
PSFSNSQWRIIF [YOR169C C-terminal 12 aa],–,–,0.714 ± 0.021,0.694 ± 0.016
